Measurements: publication PMC12691643
“And” between values parts separate entries of the source, which are not always exact repeats. Equal values may be shown once.

B1: Arhgef7, endogenous in murine DC2.4 cells (natural protein)
chain: MNSAEQTVTWLITLGVLESPKKTISDPEVFLQASLKDGVVLCRLLERLLPGTIEKVYPEPRNESECLSNIREFLRACGASLRLETFDANDLYQGQNFNKVLSSLVTLNKVTADIGLGSDSVCARPSSHRIKSFDSLGSQSSHSRTSKLLQSQYRSLDMTDNTNSQLVVRAKFNFQQTNEDELSFSKGDVIHVTRVEEGGWWEGTHNGRTGWFPSNYVREIKPSEKPVSPKSGTLKSPPKGFDTTAINKSYYNVVLQNILETEHEYSKELQSVLSTYLRPLQTSDKLSSANTSYLMGNLEEISSFQQVLVQSLEECTKSPEAQQRVGGCFLSLMPQMRTLYLAYCANHPSAVSVLTEHSEDLGEFMETKGASSPGILVLTTGLSKPFMRLDKYPTLLKELERHMEDYHPDRQDIQKSMTAFKNLSAQCQEVRKRKELELQILTEPIRSWEGDDIKTLGSVTYMSQVTIQCAGSEEKNERYLLLFPNLLLMLSASPRMSGFIYQGKLPTTGMTITKLEDSENHRNAFEISGSMIERILVSCTSQQDLHEWVEHLQKQTKVTSVSNPTIKPHSVPSHTLPSHPLTPSSKHADSKPVALTPAYHTLPHPSHHGTPHTTISWGPLEPPKTPKPWSLSCLRPAPPLRPSAALCYKEDLSKSPKTMKKLLPKRKPERKPSDEEFAVRKSTAALEEDAQILKVIEAYCTSAKTRQTLNSTWQGTDLMHNHVLADDDQSSLDSLGRRSSLSRLEPSDLSEDSEYDSIWTAHSYRMGSASRSRKESAPQVLLPEEEKIIVEETKSNGQTVIEEKSLVDTVYALKDEVQELRQDNKKMKKSLEEEQRARKDLEKLVRKVLKNMNDPAWDETNL
B2: Brk1 (Hspc300), endogenous in murine DC2.4 cells (natural protein)
chain: MAGQEDPVQREIHQDWANREYIEIITSSIKKISDFLNSFDMSCRSRLATLNEKLTALERRIEYIEARVTKGETLT
B3: Sh3rf1, endogenous in murine DC2.4 cells (natural protein)
chain: MDESALLDLLECPVCLERLDASAKVLPCQHTFCKRCLLGIVGSRNELRCPECRTLVGSGVDELPSNILLVRLLDGIKQRPWKPGPGGGGGTTCTNTLRAQGSTVVNCGSKDLQSSQCGQQPRVQAWSPPVRGIPQLPCAKALYNYEGKEPGDLKFSKGDIIILRRQVDENWYHGEVSGVHGFFPTNFVQIIKPLPQPPPQCKALYDFEVKDKEADKDCLPFAKDDVLTVIRRVDENWAEGMLADKIGIFPISYVEFNSAAKQLIEWDKPPVPGVDTAECPSATAQSTSASKHPDTKKNTRKRHSFTSLTMANKSSQGSQNRHSMEISPPVLISSSNPTAAARISELSGLSCSAPSQVHISTTGLIVTPPPSSPVTTGPAFTFPSDVPYQAALGSMNPPLPPPPLLAATVLASTPSGATAAVAAAAAAAAAAGMGPRPVMGSSEQIAHLRPQTRPSVYVAIYPYTPRKEDELELRKGEMFLVFERCQDGWYKGTSMHTSKIGVFPGNYVAPVTRAVTNASQAKVSMSTAGQASRGVTMVSPSTAGGPTQKPQGNGVAGNPSVVPTAVVSAAHIQTSPQAKVLLHMSGQMTVNQARNAVRTVAAHSQERPTAAVTPIQVQNAACLGPASVGLPHHSLASQPLPPMAGPAAHGAAVSISRTNAPMACAAGASLASPNMTSAMLETEPSGRTVTILPGLPTSPESAASACGNSSAGKPDKDSKKEKKGLLKLLSGASTKRKPRVSPPASPTLDVELGAGEAPLQGAVGPELPLGGSHGRVGSCPTDGDGPVAAGTAALAQDAFHRKTSSLDSAVPIAPPPRQACSSLGPVMNEARPVVCERHRVVVSYPPQSEAELELKEGDIVFVHKKREDGWFKGTLQRNGKTGLFPGSFVENI
B4: Git1, endogenous in murine DC2.4 cells (natural protein)
chain: MSRKGPRAEVCADCSAPDPGWASISRGVLVCDECCSVHRSLGRHISIVKHLRHSAWPPTLLQMVHTLASNGANSIWEHSLLDPAQVQSGRRKANPQDKVHPIKSEFIRAKYQMLAFVHKLPCRDDDGVTAKDLSKQLHSSVRTGNLETCLRLLSLGAQANFFHPEKGTTPLHVAAKAGQTLQAELLVVYGADPGSPDVNGRTPIDYARQAGHHELAERLVECQYELTDRLAFYLCGRKPDHKNGHYIIPQMADRSRQKCMSQSLDLSELAKAAKKKLQALSNRLFEELAMDVYDEVDRRENDAVWLATQNHSTLVTERSAVPFLPVNPEYSATRNQGRQKLARFNAREFATLIIDILSEAKRRQQGKSLSSPTDNLELSARSQSELDDQHDYDSVASDEDTDQEPLPSAGATRNNRARSMDSSDLSDGAVTLQEYLELKKALATSEAKVQQLMKVNSSLSDELRRLQREIHKLQAENLQLRQPPGPVPPPSLPSERAEHTLMGPGGSTHRRDRQAFSMYEPGSALKPFGGTPGDELATRLQPFHSTELEDDAIYSVHVPAGLYRIRKGVSASSVPFTPSSPLLSCSQEGSRHASKLSRHGSGADSDYENTQSGDPLLGLEGKRFLELSKEDELHPELESLDGDLDPGLPSTEDVILKTEQVTKNIQELLRAAQEFKHDSFVPCSEKIHLAVTEMASLFPKRPALEPVRSSLRLLNASAYRLQSECRKTVPPEPGAPVDFQLLTQQVIQCAYDIAKAAKQLVTITTREKKQ
B5: Arhgef6, endogenous in murine DC2.4 cells (natural protein)
chain: MNPEERLVTWLISLGVLESPKKTVCDPEEFLKSSLKNGVVLCKLINRLLPGSVEKYCLEPQTEADCIDNINDFLKGCATLQVEVFEPDDLYSGANFSKVLNTLLAVNKATEDQLSERPCGRSSSLSAATSSQTNPQVAVPSTAPEQHSEEKAEMTENGSHQLIVKARFNFKQTNEDELSVCKGDIIYVTRVEEGGWWEGTLNGRTGWFPSNYVREIKPSERPLSPKAIKGFDTAPLTKNYYTVVLQNILDTEKEYAKELQSLLVTYLRPLQSNNNLSTVEFTCLLGNFEEVCTFQQTLCQALEECSKFPENQHKVGGCLLNLMPHFKSMYLAYCANHPSAVNVLTQHSDDLERFMENQGASSPGILILTTSLSKPFMRLEKYVTLLQELERHMEDTHPDHQDILKAIIAFKTLMGQCQDLRKRKQLELQILSEPIQAWEGDDIKTLGNVIFMSQVVMQHGACEEKEERYFLLFSSVLIMLSASPRMSGFMYQGKIPIAGMVVNRLDEIEGSDCMFEITGSTVERIVVHCNNNQDFQEWMEQLNRLTKGPTSCGSLSKTSSSSCSTHSSFSSTGQPRGPLEPPQIIKPWSLSCLRPAPPLRPSAALGYKERMSYILKESSKSPKTMKKFLHKRKTERKASEEEYVIRKSTAALEEDAQILKVIEAYCTSASFQQGTRKDSVPQVLLPEEEKLIIEETRSNGQTIIEEKSLVDTVYALKDEVKELKQENKKMKQCLEEELKSRKDLEKLVRKLLKQTDECIRSESSSKTSILQ
B6: Sorbs1 (Cap), endogenous in murine DC2.4 cells (natural protein)
chain: MSSECDVGSSKAVVNGLASGNHGPDKDMDPTKICTGKGTVTLRASSSYRGTPSSSPVSPQESPKHESKSGLEPEDPSADEWKLSSSADTNGNAQPSPLAAKGYRSVHPSLSADKPQGSPLLNEVSSSHIETDSQDFPPTSRPSSAYPSTTIVNPTIVLLQHNRDPASERRAGEQDPVPTPAELTSPGRASERRAKDASRRVVRSAQDLSDVSTDEVGIPLRNTERSKDWYKTMFKQIHKLNRDDDSDVHSPRYSFSDDTKSPLSVPRSKSEMNYIEGEKVVKRSATLPLPARSSSLKSSPERNDWEPLDKKVDTRKYRAEPKSIYEYQPGKSSVLTNEKMSRDISPEEIDLKNEPWYKFFSELEFGRPTNLEKDLSFCQAELEADLEKVETVNKSPSANSPQSSAVSPTPDITSEPPGYIYSSNFHAVKRESDGTPGGLASLENERQIYKSVLEGGDIPLQGLSGLKRPSSSASTKVDRKGGNAHMISSSSVHSRTFHTSNALGPGCKHKKPLSAAKACISEILPSKFKPRLSAPSALLQEQKSVLLPSEKAQSCENLCVSLNDSKRGLPLRVGGSIENLLMRSRRDYDSKSSSTMSLQEYGTSSRRPCPLSRKAGLHFSMFYRDMHQINRAGLSLGSISSSSVRDLASHFERSSLTLARGELGASQEGSEHIPKHTVSSRITAFEQLIQRSRSMPSLDFSGRLSKSPTPVLSRSGLTSARSAESLLESTKLRPREMDGMDSGGVYASPTCSNMADHALSFRSLVPSEPLSICSDELDHCSNVSNDSREGSGGSVHGDFPKHRLNKCKGTCPASYTRFTTIRKHEQQSSRQSDWRSDSRGDKNSLLRNIHLMSPLPFRLKKPLQQHPRQPPPSDSSESPAGQKADLPCHDPQDQPHSAGKPQVPTRLSSRHTMARLSHNSEPPLDRPAGLEDCTRAINNGNPVPYSDHGLDRNNNPQSELAAAHGDSESPRHFIPADYLESTEEFIRRRHDDKEKLLADQRRLKREQEEADIAARRHTGVIPTHHQFITNERFGDLLNIDDTAKRKSGLEMRPARAKFDFKAQTLKELPLQKGDVVYIYRQIDQNWYEGEHHGRVGIFPRTYIELLPPAEKAQPRKLAPVQVLEYGEAIAKFNFNGDTQVEMSFRKGERITLLRQVDENWYEGRIPGTSRQGIFPITYVDVLKRPLVKTPVDYIDLPYSSSPSRSATVSPQQPQAQQRRVTPDRSQPSLDLCSYQALYSYVPQNDDELELRDGDIVDVMEKCDDGWFVGTSRRTRQFGTFPGNYVKPLYL

target: TgWIP^(PRR3 mut), HA-tagged (Toxoplasma gondii); assay: affinity purification with mass spectrometry; HA-tagged TgWIP variants pulled down by the HA tag from lysates of DC2.4 cells infected 4 h at MOI 7; host partners by mass spectrometry; values are negative fold changes in peptide counts of the mutant immunoprecipitations relative to TgWIP^WT

Binder	negative fold change in peptide counts relative to TgWIP^WT [fold]
B1	8
B2	9
B3	6
B4	11
B5	7
B6	30

target: TgWIP^Y150A/Y199A, HA-tagged (Toxoplasma gondii); assay: as above

Binder	negative fold change in peptide counts relative to TgWIP^WT
B1	3 fold and 2 fold
B2	1 fold
B3	2 fold
B4	2 fold
B5	2 fold
B6	1 fold

target: TgWIP^(PRR2 mut), HA-tagged (Toxoplasma gondii); assay: as above

Binder	negative fold change in peptide counts relative to TgWIP^WT [fold]
B1	4
B2	4
B3	10
B4	4
B5	3
B6	14

target: TgWIP^(WIRS mut), HA-tagged (Toxoplasma gondii); assay: as above

Binder	negative fold change in peptide counts relative to TgWIP^WT [fold]
B1	2
B2	3
B3	2
B4	2
B5	2
B6	2
